Reference: patent publication US20230012273A1 (Boehringer Ingelheim, published 2023)
Blank lines part the entries; values can stand above or below the binder they belong to.

Tests used:
[1] = target: T1, full-length human SIRPγ (NP_061026.2) on cells (human, UniProt Q9P1W8 29-387); test: flow cytometry, Expi-CHO cells
T1 construct: also called CHO-hSIRPγ; γ WT
Procedure: (§1) Expi-CHO parental cells are transduced with lentiviruses containing either full-length wild-type human SIRPγ ([…]) or full-length human SIRPγ with amino acid point mutations (Table 64) and sorted to achieve matching expression levels. These cells are blocked with donkey IgG and incubated on ice with increasing concentrations of antibodies for 60 minutes, washed and stained with AF647-conjugated donkey F(ab′)₂ anti-human IgG antibodies. Stained cells are washed, fixed, and analyzed by flow cytometry. Median fluorescent intensity is determined and used as a measure of antibody binding.
T1 sequence (Q9P1W8 29-387): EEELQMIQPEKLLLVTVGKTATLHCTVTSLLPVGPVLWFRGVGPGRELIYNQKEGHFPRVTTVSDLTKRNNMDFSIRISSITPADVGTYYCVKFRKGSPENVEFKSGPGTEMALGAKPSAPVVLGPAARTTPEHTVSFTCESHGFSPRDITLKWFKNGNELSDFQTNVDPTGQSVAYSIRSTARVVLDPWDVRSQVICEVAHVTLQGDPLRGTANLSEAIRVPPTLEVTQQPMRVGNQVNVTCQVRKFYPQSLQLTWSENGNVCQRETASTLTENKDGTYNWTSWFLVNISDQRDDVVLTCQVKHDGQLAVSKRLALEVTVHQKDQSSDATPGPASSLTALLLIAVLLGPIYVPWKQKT

[2] = target: T2, full-length human SIRPγ E→D on Expi-CHO cells (human, UniProt Q9P1W8 29-387); test: flow cytometry, Expi-CHO cells
T2 construct: the entry already carries the change (PENV to PDNV)
Procedure: as §1

[3] = target: T3, full-length human SIRPβ1 D→H on Expi-CHO cells (human, UniProt O00241 30-398); test: flow cytometry, Expi-CHO cells
T3 construct: the entry already carries the change (PDDV to PDHV)
Procedure: These cells are blocked with donkey IgG and incubated on ice with increasing concentrations of antibodies for 60 minutes, washed and stained with AF647-conjugated donkey F(ab′)₂ anti-human IgG antibodies. Stained cells are washed, fixed, and analyzed by flow cytometry. Median fluorescent intensity is determined and used as a measure of antibody binding.

[4] = target: T1, full-length human SIRPγ (NP_061026.2) …; test: flow cytometry, primary CD3+ T cells
Procedure: (§2) Antibody binding to primary human T cells expressing endogenous SIRPγ is evaluated by flow cytometry. Human peripheral blood mononuclear cells (PBMCs) are blocked with donkey IgG and incubated on ice with increasing concentrations of antibody for 60 minutes, washed and stained with AF647-conjugated donkey F(ab′)₂ anti-human IgG secondary reagent. […] Cells are washed, fixed, and analyzed by flow cytometry. Median fluorescent intensity of CD3+ gated population is determined and used as a measure of antibody binding.

[5] = target: T4, full-length human SIRPβL (NP_001129316.1) on cells (human, UniProt Q5TFQ8 30-398); test: flow cytometry, U937 SIRPα-KO cells expressing full-length human SIRPβL
T4 construct: one molecule for U937 SIRPα-KO transfectants (NP_001129316.1) and Expi-CHO transfectants (Q5TFQ8); also called SIRPβ1v3; βL WT
Procedure: Antibody binding to cells expressing full-length human SIRPβ1 (NP_006056.2) and SIRPβL (NP_001129316.1) is evaluated by flow cytometry. SIRPβ1- or SIRPβL-expressing U937^{SIRPα KO} cells are blocked with donkey IgG and incubated on ice with increasing concentrations of antibodies for 60 minutes, washed and stained with AF647-conjugated donkey F(ab′)₂ anti-human IgG secondary reagent. Cells are washed, fixed, and analyzed by flow cytometry. Median fluorescent intensity is determined and used as a measure of antibody binding.

[6] = target: T5, full-length human SIRPγ (NP_061026.2) on cells (human, UniProt Q9P1W8 29-387); test: flow cytometry, primary human CD3+ T cells; endogenous SIRPγ on primary human CD3+ T cells
T5 construct: on CHO and Expi-CHO cells; endogenous on primary human CD3+ T cells; also called γ WT
Procedure: as §2
T5 sequence (Q9P1W8 29-387): as above

T3 sequence (O00241 30-398 D130H): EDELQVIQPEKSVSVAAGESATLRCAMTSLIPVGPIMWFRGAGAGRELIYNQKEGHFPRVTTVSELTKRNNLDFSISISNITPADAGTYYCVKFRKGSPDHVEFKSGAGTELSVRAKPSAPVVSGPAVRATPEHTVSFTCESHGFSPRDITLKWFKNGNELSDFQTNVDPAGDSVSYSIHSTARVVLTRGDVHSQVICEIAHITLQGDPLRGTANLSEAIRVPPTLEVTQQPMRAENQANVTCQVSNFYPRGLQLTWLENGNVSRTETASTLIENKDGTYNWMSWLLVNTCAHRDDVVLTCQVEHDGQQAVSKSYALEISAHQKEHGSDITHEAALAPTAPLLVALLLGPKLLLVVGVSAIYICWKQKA
T4 sequence (Q5TFQ8 30-398): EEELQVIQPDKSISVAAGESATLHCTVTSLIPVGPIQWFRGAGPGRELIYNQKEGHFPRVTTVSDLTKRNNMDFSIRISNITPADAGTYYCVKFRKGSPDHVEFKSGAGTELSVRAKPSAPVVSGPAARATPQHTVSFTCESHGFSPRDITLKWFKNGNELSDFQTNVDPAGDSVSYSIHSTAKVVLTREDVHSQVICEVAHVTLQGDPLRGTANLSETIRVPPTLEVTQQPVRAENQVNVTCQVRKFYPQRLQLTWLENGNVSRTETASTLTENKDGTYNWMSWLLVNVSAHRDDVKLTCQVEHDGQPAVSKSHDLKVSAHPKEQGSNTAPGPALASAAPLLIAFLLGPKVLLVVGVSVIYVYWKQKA
T2 sequence (Q9P1W8 29-387 E128D): as the sequence (Q9P1W8 29-387) above, with E100D counted along it

EC50 [1]: 0.113 nM
EC50 [2]: 0.3 nM
EC50 [3]: 0.01 nM
EC50 [4]: 0.03 nM
B1: Anti-SIRPα antibody KWAR23 (antibody, V domains shown)
VH: EVQLQQSGAELVKPGASVKLSCTASGFNIKDYYIHWVQQRTEQGLEWIGRIDPEDGETKYAPKFQDKATITADTSSNTAYLHLSSLTSEDTAVYYCARWGAYWGQGTLVTVSS
VL: QIVLTQSPAIMSASPGEKVTLTCSASSSVSSSYLYWYQQKPGSSPKLWIYSTSNLASGVPARFSGSGSGTSYSLTISSMEAEDAASYFCHQWSSYPRTFGAGTKLELK

binding result [5]: no binding (tested: about 200 nM)
B2: Antibody A (antibody, human IgG1, kappa, L234A L235A)
heavy: not shown
light: DIQMTQSPSSLSASVGDRVTITCRASQDINNYLAWFQQKPGKAPKSLIYTASSLHSGVPSKFSGSGSGTDFTLTISSLQPEDFATYYCQQYVSYPYTFGQGTKLEIKRTVAAPSVFIFPPSDEQLKSGTASVVCLLNNFYPREAKVQWKVDNALQSGNSQESVTEQDSKDSTYSLSSTLTLSKADYEKHKVYACEVTHQGLSSPVTKSFNRGEC

binding result [6]: no binding
B3: Antibody A (antibody, human IgG1, kappa, L234A L235A)
heavy: not shown
light: B2 light
